Here are results for two molecules from publication PMC4393304, “Cloning and Characterization of Three Eimeria tenella Lipid Phosphate Phosphatases” (PLoS ONE, 2015).

Data set [1] concerns the target T1, EtLPP1 (Eimeria tenella, UniProt A0A0A7H6F4).
T1 construct: full-length, 347 residues, calculated Mr 38239; His6-tagged (pcDNA3.1/His), transient in HEK293 cells, membrane fraction, Ni-NTA purified; bands 40 and 42 kDa, monomer
T1 sequence (A0A0A7H6F4 1-346): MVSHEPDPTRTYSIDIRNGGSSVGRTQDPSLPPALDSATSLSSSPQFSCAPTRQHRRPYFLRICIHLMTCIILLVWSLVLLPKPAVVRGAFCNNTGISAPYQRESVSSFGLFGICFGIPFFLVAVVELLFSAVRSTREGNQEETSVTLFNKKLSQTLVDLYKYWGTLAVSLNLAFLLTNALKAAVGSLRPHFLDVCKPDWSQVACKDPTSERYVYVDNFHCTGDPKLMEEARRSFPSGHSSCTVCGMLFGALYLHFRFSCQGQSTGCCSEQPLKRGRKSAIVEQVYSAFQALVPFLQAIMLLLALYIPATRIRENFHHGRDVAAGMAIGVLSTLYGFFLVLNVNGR
Description: PiPer phosphate-release fluorescence assay. Conditions: pH 6.5, 37°C, Triton X-100 mixed micelles, 1 mg/ml fatty-acid free BSA, Mg2+-independent. In kind it is biochemical. An excerpt: (§1) PiPer phosphate-release fluorescence assay on EtLPP1

Substrate in data set [2]: CCCCCCCCCCCCC/C=C/[C@@H](O)[C@@H](N)COP(=O)(O)O
In words: PiPer phosphate-release fluorescence assay. Particulars: pH 6.5, 37°C, Triton X-100 mixed micelles, 1 mg/ml fatty-acid free BSA, Mg2+-independent. In kind it is biochemical, Eimeria tenella.
Excerpt: as §1

A word on the Km: it is the concentration of substrate that gives half-maximal velocity. With LPA, the Michaelis constant (Km) in data set [1] was 46 ± 9 µM.

B1: EtLPP1 (Eimeria tenella) (protein)
chain: T1 sequence (A0A0A7H6F4 1-346)
notes: full-length, 347 residues, calculated Mr 38239; His6-tagged (pcDNA3.1/His), transient in HEK293 cells, membrane fraction, Ni-NTA purified; bands 40 and 42 kDa, monomer
The Vmax is the rate approached at saturating substrate. With B1, in data set [2], the Michaelis constant (Km) is 22 ± 6 µM and the Vmax was found to be 0.00015 µmol/min/mg.
